{
  "source": "paper PMC6150197",
  "about": "“NeoBOMB1, a GRPR-Antagonist for Breast Cancer Theragnostics: First Results of a Preclinical Study with [^67Ga]NeoBOMB1 in T-47D Cells and Tumor-Bearing Mice” (Molecules : A Journal of Synthetic Chemistry and Natural …, 2017)",
  "key": {"[1]": {"tested_on": "T-47D Xenograft-Bearing SCID Mice", "experiment": "in vivo", "details": "T-47D tumor, 4 h pi, mean ± sd, n = 4", "protocol": "(§1) Female SCID mice (15 ± 3 g, six weeks of age animals at the day of arrival, NCSR “Demokritos” Animal House Facility) were acclimatized under aseptic conditions and treated with estrogens (receiving 4 mg/L β-estradiol, Sigma-Aldrich, St. Louis, MO, USA, in their drinking water,) for a week prior to inoculation. A ≈ 150 μL bolus containing a suspension of ≈1.2 × 10^7 freshly harvested human T-47D cells suspended in Matrigel (Corning Life Sciences, Inc., Bedford, MA, USA) was subcutaneously injected in their flanks. The animals were kept under estrogen treatment for additional 8 weeks till they developed well-palpable tumors (100–200 mg) at the inoculation sites.\n(§2) On the day of the experiment animals were allowed access to water, but not to food. Animals in 3 groups of 4 received a 100 μL bolus of [^67Ga]NeoBOMB1 (37 kBq, corresponding to 10 pmol, or 200 pmol total peptide or 40 nmol for in vivo GRPR-blockade for each of the 3 groups) was injected in the tail vein; animals were euthanized at 4 h pi and dissected. Samples of blood, tumors and organs of interest were collected, weighed and measured for radioactivity in the gamma counter. Intestines and stomach were not emptied of their contents. In another experimental setting, mice in 3 groups of 4 received a 100 μL bolus of [^67Ga]NeoBOMB1 (37 kBq, 200 pmol); they were euthanized at 1 h, 4 h and 24 h pi and biodistribution was conducted as described above. Statistical analysis was conducted using the unpaired two-tailed Student’s t-test; values p < 0.05 were considered statistically significant."}, "in vivo": {"experiment": "in vivo", "details": "female, SCID, mouse, iv, total radioactivity, Biodistribution, mean ± sd, n = 4; for tissue uptake at 4 h: 4 h pi; for tissue uptake at 1 h: 1 h pi; for tissue uptake at 24 h: 24 h pi", "protocol": "as §1, §2"}, "[2]": {"details": "T-47D tumor, 200 pmol, Tumor, 200 pmol peptide (0.185 MBq/nmol) iv, Table 2 time study"}, "[3]": {"details": "blood, 200 pmol, 200 pmol peptide (0.185 MBq/nmol) iv, Table 2 time study"}, "[4]": {"details": "femur, 200 pmol, 200 pmol peptide (0.185 MBq/nmol) iv, Table 2 time study"}, "[5]": {"details": "heart, 200 pmol, 200 pmol peptide (0.185 MBq/nmol) iv, Table 2 time study"}, "[6]": {"details": "intestines (not emptied), 200 pmol, Intestines, 200 pmol peptide (0.185 MBq/nmol) iv, Table 2 time study"}, "[7]": {"details": "kidneys, 200 pmol, 200 pmol peptide (0.185 MBq/nmol) iv, Table 2 time study"}},
  "data": [
    {"smiles": "CC(C)CC(CC(C)C)NC(=O)[C@H](Cc1cnc[nH]1)NC(=O)CNC(=O)[C@@H](NC(=O)[C@H](C)NC(=O)[C@H](Cc1c[nH]c2ccccc12)NC(=O)[C@H](CCC(N)=O)NC(=O)[C@@H](Cc1ccccc1)NC(=O)COCC(=O)Nc1ccc(CNC(=O)CN2CCN(CC(=O)O)CCN(CC(=O)O)CCN(CC(=O)O)CC2)cc1)C(C)C", "note": "[[^67Ga]NeoBOMB1, metal not drawn]", "values": [
      {"measurement": "Biodistribution, Tumor", "setting": "[1]; 200 pmol peptide (0.185 MBq/nmol) iv, Table 2 time study", "value": "8.68 ± 2.9", "unit": "% ID/g"},
      {"measurement": "Biodistribution, Tumor", "setting": "[1]; 40 nmol NeoBOMB1, in vivo GRPR-blockade, iv", "value": "0.64 ± 0.10", "unit": "% ID/g"},
      {"measurement": "tissue uptake at 4 h", "setting": "in vivo; T-47D tumor, 10 pmol, Tumor, 10 pmol peptide (3.7 MBq/nmol) iv", "value": "9.52 ± 2.15", "unit": "%ID/g"},
      {"measurement": "tissue uptake at 1 h", "setting": "in vivo; [2]", "value": "7.4 ± 0.68", "unit": "%ID/g"},
      {"measurement": "tissue uptake at 4 h", "setting": "in vivo; T-47D tumor, 200 pmol, Tumor, 200 pmol peptide (0.185 MBq/nmol) iv, Table 1 dose study", "value": "7.79 ± 1.54", "unit": "%ID/g"},
      {"measurement": "tissue uptake at 4 h", "setting": "in vivo; [2]", "value": "8.67 ± 2.88", "unit": "%ID/g"},
      {"measurement": "tissue uptake at 24 h", "setting": "in vivo; [2]", "value": "7.89 ± 1.13", "unit": "%ID/g"},
      {"measurement": "tissue uptake at 4 h", "setting": "in vivo; T-47D tumor, 40 nmol, Tumor, 40 nmol NeoBOMB1, in vivo GRPR-blockade", "value": "0.6 ± 0.1", "unit": "%ID/g"},
      {"measurement": "tissue uptake at 1 h", "setting": "in vivo; [3]", "value": "5.78 ± 0.29", "unit": "%ID/g"},
      {"measurement": "tissue uptake at 4 h", "setting": "in vivo; [3]", "value": "0.52 ± 0.03", "unit": "%ID/g"},
      {"measurement": "tissue uptake at 24 h", "setting": "in vivo; [3]", "value": "0.15 ± 0.01", "unit": "%ID/g"},
      {"measurement": "tissue uptake at 4 h", "setting": "in vivo; femur, 10 pmol, 10 pmol peptide (3.7 MBq/nmol) iv", "value": "0.58 ± 0.06", "unit": "%ID/g"},
      {"measurement": "tissue uptake at 1 h", "setting": "in vivo; [4]", "value": "0.73 ± 0.11", "unit": "%ID/g"},
      {"measurement": "tissue uptake at 4 h", "setting": "in vivo; femur, 200 pmol, 200 pmol peptide (0.185 MBq/nmol) iv, Table 1 dose study", "value": "0.28 ± 0.01", "unit": "%ID/g"},
      {"measurement": "tissue uptake at 4 h", "setting": "in vivo; [4]", "value": "0.37 ± 0.02", "unit": "%ID/g"},
      {"measurement": "tissue uptake at 24 h", "setting": "in vivo; [4]", "value": "0.24 ± 0.08", "unit": "%ID/g"},
      {"measurement": "tissue uptake at 4 h", "setting": "in vivo; femur, 40 nmol, 40 nmol NeoBOMB1, in vivo GRPR-blockade", "value": "0.31 ± 0.02", "unit": "%ID/g"},
      {"measurement": "tissue uptake at 4 h", "setting": "in vivo; heart, 10 pmol, 10 pmol peptide (3.7 MBq/nmol) iv", "value": "0.26 ± 0.01", "unit": "%ID/g"},
      {"measurement": "tissue uptake at 1 h", "setting": "in vivo; [5]", "value": "1.94 ± 0.09", "unit": "%ID/g"},
      {"measurement": "tissue uptake at 4 h", "setting": "in vivo; heart, 200 pmol, 200 pmol peptide (0.185 MBq/nmol) iv, Table 1 dose study", "value": "0.34 ± 0.04", "unit": "%ID/g"},
      {"measurement": "tissue uptake at 4 h", "setting": "in vivo; [5]", "value": "0.52 ± 0.04", "unit": "%ID/g"},
      {"measurement": "tissue uptake at 24 h", "setting": "in vivo; [5]", "value": "0.22 ± 0.04", "unit": "%ID/g"},
      {"measurement": "tissue uptake at 4 h", "setting": "in vivo; heart, 40 nmol, 40 nmol NeoBOMB1, in vivo GRPR-blockade", "value": "0.38 ± 0.02", "unit": "%ID/g"},
      {"measurement": "tissue uptake at 1 h", "setting": "in vivo; [6]", "value": "10.6 ± 0.87", "unit": "%ID/g"},
      {"measurement": "tissue uptake at 4 h", "setting": "in vivo; [6]", "value": "18.5 ± 2.12", "unit": "%ID/g"},
      {"measurement": "tissue uptake at 24 h", "setting": "in vivo; [6]", "value": "2.31 ± 0.34", "unit": "%ID/g"},
      {"measurement": "tissue uptake at 4 h", "setting": "in vivo; intestines, 10 pmol, Intestines (not emptied), 10 pmol peptide (3.7 MBq/nmol) iv", "value": "16.7 ± 2.18", "unit": "%ID/g"},
      {"measurement": "tissue uptake at 4 h", "setting": "in vivo; intestines, 200 pmol, Intestines (not emptied), 200 pmol peptide (0.185 MBq/nmol) iv, Table 1 dose study", "value": "15.1 ± 1.52", "unit": "%ID/g"},
      {"measurement": "tissue uptake at 4 h", "setting": "in vivo; intestines, 40 nmol, Intestines (not emptied), 40 nmol NeoBOMB1, in vivo GRPR-blockade", "value": "11.1 ± 2.71", "unit": "%ID/g"},
      {"measurement": "tissue uptake at 4 h", "setting": "in vivo; kidneys, 10 pmol, 10 pmol peptide (3.7 MBq/nmol) iv", "value": "3.4 ± 0.45", "unit": "%ID/g"},
      {"measurement": "tissue uptake at 1 h", "setting": "in vivo; [7]", "value": "7.33 ± 0.47", "unit": "%ID/g"},
      {"measurement": "tissue uptake at 4 h", "setting": "in vivo; kidneys, 200 pmol, 200 pmol peptide (0.185 MBq/nmol) iv, Table 1 dose study", "value": "2.76 ± 0.26", "unit": "%ID/g"},
      {"measurement": "tissue uptake at 4 h", "setting": "in vivo; [7]", "value": "3.1 ± 0.75", "unit": "%ID/g"},
      {"measurement": "tissue uptake at 24 h", "setting": "in vivo; [7]", "value": "2.15 ± 0.42", "unit": "%ID/g"},
      {"measurement": "tissue uptake at 4 h", "setting": "in vivo; kidneys, 40 nmol, 40 nmol NeoBOMB1, in vivo GRPR-blockade", "value": "3.95 ± 0.94", "unit": "%ID/g"},
      {"measurement": "tissue uptake at 4 h", "setting": "in vivo; liver, 10 pmol, 10 pmol peptide (3.7 MBq/nmol) iv", "value": "3.37 ± 0.19", "unit": "%ID/g"},
      {"measurement": "tissue uptake at 1 h", "setting": "in vivo; liver, 200 pmol, 200 pmol peptide (0.185 MBq/nmol) iv, Table 2 time study", "value": "25.7 ± 1.97", "unit": "%ID/g"},
      {"measurement": "tissue uptake at 4 h", "setting": "in vivo; liver, 200 pmol, 200 pmol peptide (0.185 MBq/nmol) iv, Table 1 dose study", "value": "6.5 ± 0.34", "unit": "%ID/g"}
    ]}
  ]
}
